Assay results taken from patent US20250002610A1 (Genmab, published 2025).

Biological target: T1, rat FAPα on Expi293F cells (rat (Rattus norvegicus), UniProt P97321 1-761 (mouse entry))
T1 chain: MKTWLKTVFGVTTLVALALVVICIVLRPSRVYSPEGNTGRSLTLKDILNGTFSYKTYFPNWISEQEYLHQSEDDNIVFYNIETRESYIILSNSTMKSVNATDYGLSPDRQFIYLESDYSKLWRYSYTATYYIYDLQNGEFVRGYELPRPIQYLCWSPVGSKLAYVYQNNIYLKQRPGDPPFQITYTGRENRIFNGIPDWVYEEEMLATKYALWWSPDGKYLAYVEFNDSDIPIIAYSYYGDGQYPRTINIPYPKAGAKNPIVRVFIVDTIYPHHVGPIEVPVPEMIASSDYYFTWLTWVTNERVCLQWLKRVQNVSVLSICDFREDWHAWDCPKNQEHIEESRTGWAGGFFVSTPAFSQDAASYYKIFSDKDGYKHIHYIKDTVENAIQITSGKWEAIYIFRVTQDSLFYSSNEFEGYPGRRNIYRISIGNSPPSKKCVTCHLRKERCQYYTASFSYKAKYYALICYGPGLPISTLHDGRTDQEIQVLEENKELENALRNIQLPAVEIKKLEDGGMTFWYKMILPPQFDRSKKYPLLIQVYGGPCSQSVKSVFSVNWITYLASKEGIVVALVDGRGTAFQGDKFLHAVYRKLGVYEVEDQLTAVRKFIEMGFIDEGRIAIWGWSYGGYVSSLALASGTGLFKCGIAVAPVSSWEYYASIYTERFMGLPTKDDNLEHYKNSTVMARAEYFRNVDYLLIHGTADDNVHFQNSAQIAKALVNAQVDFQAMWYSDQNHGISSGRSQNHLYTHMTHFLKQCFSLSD
Experiment: flow cytometry on Expi293F cells transiently expressing rat FAPα, gMFI PE
Protocol: Binding of BisG1-FAPα-FERL/DR4-FERR, BisG1-FAPα-FEAL/b12-FEAR and IgG1-FAPα-FERL to FAPα of species commonly used for nonclinical toxicology studies was assessed by flow cytometry using Expi293F cells transiently expressing FAPα from different animal species. IgG1-b12 was included as negative control.
Expi293F cells expressing recombinant FAPα from various species (human, cynomolgus monkey, dog, pig, rat or mouse) were seeded (20,000 cells/well) in 96-Well round bottom plates (Greiner Bio-one, Cat #650101). Antibody dilutions were prepared using FACS buffer, consisting of PBS (Capricorn Scientific, Cat #PBS-10XA, diluted to 1×PBS in distilled water)+1% BSA (Roche, Cat #10735086001)+0.02% Sodium Azide (Bio-World, Cat #41920044-3). Plates were centrifuged, supernatant was removed, and cells were resuspended in 100 μL of antibody dilutions (concentration range 30-0.00017 μg/mL with three-fold serial dilutions using FACS buffer) of BisG1-FAPα-FERL/DR4-FERR, BisG1-FAPα-FEAL/b12-FEAR, IgG1-FAPα-FERL and IgG1-b12 and incubated for 30 min at 4° C. […] Antibody binding to viable cells (gMFI of PE on TO-PRO-3 negative cells) was analyzed by flow cytometry on a FACS Celesta and FACS_Diva software (first two experiments) or iQue® 3 and FlowJo software (last experiment). gMFI was determined and visualized using GraphPad Prism. Binding curves were analyzed using nonlinear regression analysis. […]

B1: IgG1-FAPα-FERL (antibody)
heavy: EVQLLESGGGLVQPGGSPRLSCEASGFTFSSYALSWVRQAPGKGLEWVSAISGSGGGRYYADSVKGRFTISRDNSKNTLFLQMNSLRAEDTAVYYCAKEGYSSSGTYWDHWGQGTLVTVSSASTKGPSVFPLAPSSKSTSGGTAALGCLVKDYFPEPVTVSWNSGALTSGVHTFPAVLQSSGLYSLSSVVTVPSSSLGTQTYICNVNHKPSNTKVDKRVEPKSCDKTHTCPPCPAPEFERGPSVFLFPPKPKDTLMISRTPEVTCVVVDVSHEDPEVKFNWYVDGVEVHNAKTKPREEQYNSTYRVVSVLTVLHQDWLNGKEYKCKVSNKALPAPIEKTISKAKGQPREPQVYTLPPSREEMTKNQVSLTCLVKGFYPSDIAVEWESNGQPENNYKTTPPVLDSDGSFLLYSKLTVDKSRWQQGNVFSCSVMHEALHNHYTQKSLSLSPG
light: AIQMTQSPSSVSASVGDRVTITCRASQGVSSWLAWYQQKPGRAPKLLIYVASTLQSGVPSRFSGSGSGTDFTLTINSLQPEDFATYYCQQANSFPPTFGQGTRLEMKRTVAAPSVFIFPPSDEQLKSGTASVVCLLNNFYPREAKVQWKVDNALQSGNSQESVTEQDSKDSTYSLSSTLTLSKADYEKHKVYACEVTHQGLSSPVTKSFNRGEC
notes: Bivalent monoclonal IgG1 kappa
  EC50 (read off the curve): ~0.2 µg/mL
